Residue numbers refer to the chain shown, from its start.
B1: Antibody 4 (antibody, V domains shown)
VH: QVQLQESGPGLVKPSETLSLTCTVSGYSFDSGYYWGWLRQPPGKGLEWIGSIYHSRNTYYNPSLKSRVTISVDTSKNQFSLQLSSVTAADTAVYYCARGTWYSSNLRYWFDPWGKGTL
VL: NFMLTQPHSVSESPGKTVTISCTGSGGNIARNYVQWYQQRPGSAPVTVILEDDKRPSGIPDRFSGSIDRSSNSASLTISGLRTEDEALYYCQSYDDSDLVVFGGGTKLT
B2: Antibody 2 (antibody, V domains shown)
VH: QVQLVQSGAEVKKPGSSVKVSCKTSGGTFSSYAVTWVRQAPGQGLEWMGGIIGMFGTTNYAQKFQGRVTITADELTSTAYMELSSLRSEDTAVYYCARGSYYYESSLDYWGRGTL
VL: ETTLTQSPATLSVSPGERATLSCRASQSVSRNLAWYQQKPGQAPRLLIYGASSRATGIPDRFSGSGSGTDFTLTISRLEPEDFAVYYCQQYGSSSITFGQGTRLEIKR
B3: Antibody 3 (antibody, V domains shown)
V domain 1: B2 VH with Q1E, G50A, E89D, R112K
V domain 2: QSVLTQPPSVSGAPGQRVTISCGGSRSNIGAGYDVHWYQQFPGTAPKVVIYGNNNRPSGVPDRFSGSKSGTSASLAITGLQAEDEANYYCQSYDTNLGGSIFGGGTQVTVL
B4: Antibody 1 (antibody, V domains shown)
VH: B2 VH with K19R, V68L, L75M, S105T, S106T
VL: ETTLTQSPGTLSLSPGERATLSCRVSQSVSSNYLAWYQQKPGQAPRLLIYGASSRATGIPDRFSGSGSGTDFTLTISRLEPEDFAVYYCQQYGTSPRAFGHGTKVEIKR

Tests used:
[1] = biological target: H5 hemagglutinin of influenza A/Indonesia/5/05 (H5N1) (influenza A virus H5N1 A/Indonesia/5/05); assay: cell-based or functional assay
[2] = biological target: H1 hemagglutinin of influenza A/New Caledonia/20/99 (H1N1) (influenza A virus H1N1 A/New Caledonia/20/99); assay: cell-based or functional assay
[3] = biological target: H5 hemagglutinin of influenza A/Vietnam/1203/04 (H5N1) (influenza A virus H5N1 A/Vietnam/1203/04)
[4] = biological target: H5 hemagglutinin of influenza A/Vietnam/1203/04 (H5N1) (influenza A virus H5N1 A/Vietnam/1203/04); assay: cell-based or functional assay
[5] = biological target: H5 hemagglutinin of influenza A/Turkey/65596/06 (H5N1) (influenza A virus H5N1 A/Turkey/65596/06); assay: cell-based or functional assay

Binder	Minimum inhibitory concentrations required to neutralize virus [1] [µg/mL]	Minimum inhibitory concentrations required to neutralize virus [2] [µg/mL]	Neutralization (MIC), H5N1 Vietnam 1203 virus, microneutralization [3] [µg/mL]	Minimum inhibitory concentrations required to neutralize virus [4] [µg/mL]	Minimum inhibitory concentrations required to neutralize virus [5] [µg/mL]
B1	> 333	> 333			
B2	27		188	63	108
B3	16		175		31
B4	9.3	9			9.3
